Source: the DeepSol protein solubility set

assay: soluble on expression in E. coli; label from the status in PepcDB or PDB records

Row | Sequence | soluble on expression in E. coli
1 | MKLTGKQTWVFEHPIFVNSAGTAAGPKEKDGPLGSLFDKTYDEMHCNQKSWEMAERQLMEDAVNVALQKNNLTKDDIDLLLAGDLLNQNVTANYVARHLKIPFLCMFGACSTSMETVAVASALVDGGFAKRALAATSSHNATAERQFRYPTEYGGQKPDTATSTVTGSGAVVISQTPGDIQITSATVGKVSDLGITDPFDMGSAMAPAAADTIKQHFKDLNRTADDYDLILTGDLSGVGSPIVKDILKEDGYPVGTKHDDCGLLIYTPDQQVFAGGSGCACSAVVTYSHIFKQLREGKLNRVFVVATGALLSPTMIQQKETIPTIAHGVVFERAGGASLEHHHHHH | soluble
2 | MGSDKIHHHHHHMAKFIMVVGTSSNSGKTVLVSGICRMLSNKGYKVAPFKSQNMSLNSRVSVEDGEIAVAQYTQAMAARAEPSVHFNPILLKPKGNFVSQVIVHGNPYEDKDYNEYRSKKDDFLVKIKESIDYLDKNYDYVVIEGAGSCCEINLLNDDIANLKVAEIAGADAILVSDIDRGGVFASIYGTVQLLPENWKKLLKGFVINKFRGNIDVLKDGFEKIEELTNIPVIGTIPYDETLVLPEEDSQALDGKRVFGNLKSPIEVNVVKFSKIANFTDVDPFSSDCLMKYIDFNENITGDILILPGTRCSTVEMDLMKKYGMDKKILEFVENGGIVLGICGGYQALGKMLFDEDFSEGDVGTISGLGLFDMETTFGNKKAIKNSTGKISIFNQNFDVSGYELHEGYSVSNETPLISLSKGFGNCGDSYDGSFKMIGDSYIFGTYFHGILENFEFRNYLVNLARSKKNLSKIEDDTYAELFNENMDKLSKIIEENLDFSKIIG | not soluble
3 | MKSLIIVNPADCIGCRTCEVACVVAHPSEQELNADVFLPRLKVQRLDSISAPVMCHQCENAPCVGACPVGALTMGEQVVQTNSARCIGCQSCVSACPFGMITIQSLPGDTRQQIVKCDLCEQREEGPACVESCPTQALQLLTERELRRVRQQRIVASGENPL | not soluble
4 | IVGGRRARPHAWPFMVSLQLRGGHFCGATLIAPNFVMSAAHCVANVNVRAVRVVLGAHNLSRREPTRQVFAVQRIFENGYDPVNLLNDIVILQLNGSATINANVQVAQLPAQGRRLGNGVQCLAMGWGLLGRNRGIASVLQELNVTVVTSLCRRSNVCTLVRGRQAGVCFGDSGSPLVCNGLIHGIASFVRGGCASGLYPDAFAPVAQFVNWIDSIIQ | soluble
5 | MQERHTEQDYRALLIADTPIIDVRAPIEFEQGAMPAAINLPLMDNDERASVGTCYKQQGSDAALALGHKLVAGEIRQQRMYAWRAACLQNPQGILCCARGGQRSHIVQRWLHEAGIDYPLVEGGYKALRQTAIQATIELAQKPIVLIGGCTGSGKTLLVQQQPNGVDLEGLARHRGSAFGRTLQPQLSQASFENLLAAEMLKTDARQDLRLWVLEDESRMIGSNHLPECLRERMTQAAIAVVEDPFEIRLERLNEEYFLRMHHDFTHAYGDEQGWQEYCEYLHHGLSAIKRRLGLQRYNELAAQLDTALTTQLTTGSTDGHLAWLVPLLKEYYDPMYRYQLEKKAEKVVFRGEWAEVAVWVKAQLEHHHHHH | not soluble
6 | MNDMRQITNLGRNIENKSFSIIDEEAGPHSFAQEEWEVVRRIIHATADFDYKNITKIHPQAIDSGIQALKKGCPIVCDVQMILSGLNPERLKVYGCKTYCFISDEDVIENAKRKNSTRAIESIQKANSFNLLNESIIVIGNAPTALLEIEKLIRQEGIKPALIVGVPVGFVSAKESKESILKLEYYNVTSIPYILTMGRKGGSTIAVAILHALLLLSSKRGERLEHHHHHH | soluble
7 | GIVMTQTPASQSASLGESVTITCLASQTIGTWLAWYQQKPGKSPQLLIYAATSLADGVPSRFSGSGSGTKFSFKISSLQAEDFVSYYCQQLSSTPYTFGGGTKLEIKRADAAPTVSIFPPSSEQLTSGGASVVCFLNNFYPKDINVKWKIDGKERQNGVLNSWTDQDSKDSTYSMSSTLTLTKDEYERHNSYTCEATHKTSTSPIVKSFNRNE | soluble
8 | MAGDPMNSRMKIKKAYEYMKSFHQHDTTGHDIAHVERVYNNACYIAKRENITDTLVIELSSLLHDTVDSKLTDEILAYDQLKQFLSTLDLSSEISQQVLYIIKHMSYRAGKNNHVKLSIDGEIVRDADRLDAIGAIGIARTFQFSGHFGEPMWTETKLSNEELHTSLVEELDNSAIKHFYEKLFKLKDLMHTPTAKKLAEERHQFMIQYLKQFMSEWNFNKELEHHHHHH | soluble
9 | MGSDKIHHHHHHMGQTTFSRQKDGQPDTAYHDSETTYHYSETTYNYAYLDESTKGMIRRAILKAIAIPGHQVPFGSREMPMPYGWGTGGIQITASIIGPNDTLKVIDQGSDDTTNAVSIRAFFRKVTNVPTTEKTSEATLIQTRHRIPETPLKEDQILVFQVPIPEPLRFIEPRETETCKMHALEEYGVMQVKLYEDIARFGHIATTYAYPVKVNHRYVMDPSPIPKFDNPKMDMMPALQLFGAGREKRVYAVPPYTVVESLDFDDHPFTIQQWDKPCELCGARDSFLDEVVMDDDGTRMFVCSDTDYCQLRQSQGEKTS | not soluble
10 | IPRFGVKTEQEDVLAKELEDVNKWGLHVFRIAELSGNRPLTVIMHTIFQERDLLKTFKIPVDTLITYLMTLEDHYHADVAYHNNIHAADVVQSTHVLLSTPALEAVFTDLEILAAIFASAIHDVDHPGVSNQFLINTNSELALMYNDSSVLENHHLAVGFKLLQEENCDIFQNLTKKQRQSLRKMVIDIVLATDMSKHMNLLADLKTMVETKKVTSSGVLLLDNYSDRIQVLQNMVHCADLSNPTKPLQLYRQWTDRIMEEFFRQGDRERERGMEISPMCDKHNASVEKSQVGFIDYIVHPLWETWADLVHPDAQDILDTLEDNREWYQSTIPQSPSPAPDDPEEGRQGQTEKFQFELTLE | soluble
11 | MALIQSCSGNTMTTDTIVAQATAPGRGGVGIIRVSGPLAAHVAQTVTGRTLRPRYAEYLPFTDEDGQQLDQGIALFFPNPHSFTGEDVLELQGHGGPVVMDMLIRRILQIKGVRPARPGEFSERAFLNDKMDLTQAEAIADLIDASSEQAAKSALQSLQGEFSKRIHTLVESLIHLRIYVEAAIDFPEEEIDFLADGKVSADLQTIIDNLAAVRREANQGAIMREGMKVVIAGRPNAGKSSLLNALSGKESAIVTDIAGTTRDVLREHIHIDGMPLHIIDTAGLRDASDAVEKIGIERAWEEIRQADRVLFMVDGTTTEATDPQDIWPDFVDKLPENIGITVIRNKADQTGEPLGICHVNQPTLIRLSAKTGQGVDALRQHLKECMGFSGNQEGGFMARRRHLDALERAAEHLAIGQQQLEGYMAGEILAEELRIAQQHLNEITGEFSSDDLLGRIFSSFCIGK | not soluble
12 | MAHHHHHHMEAGARFPAAATPPASAGAAAVQGDAESEPDDERWSLSDGEPEAIPAKNGEPSDADVDAAMAAKGEAAELHGEGKQEEAIAKMGEALAYNPGNAMYWGMRALYHLEFNKPRAALHDANKALELNPQNVRALRVRGTVNRHLGHWEDSLKDLSAAQAIDYDDKTNETLKYVQSRATQRHKRQLARHHAEEEAAARRQEELRRQRQREAEEAAAAAEAQAAPGSMPGGLPRGFPGGMPGGMPGGMPGGMPPGMESVLQDPEIMVAMQDPEVAPKLAQMMQNPMAAMSMMNDPKVGPVMQKIMAKMMGGGGMPGGMGGMGGMGGFQGAGGMPSHRGAADGASGSTRRDDLD | not soluble
13 | MGHHHHHHSHMAFPGQSDTKMQWPEVPALPLLSSLCMAMVRKSSALGKEVGRRVKEMVMLVAPFRQSSSLSRTFSSRKVVKAHASLHGARLSPLSRNIRG | not soluble
14 | MNLPSKFHQVTITDPIAGAGITFTIPTRYVNLKFLNVGAQGIVVMADDLVTTQRVAIKKMQQPFLLTMSARRAYREFILLTTLKHPNIIRLLNAFTPDTSLSSFQEVYLVMEFMTHNLHEVIHRLRLDHETLSFLVYQSLCAIKHLHNLGFIHRDLKPSNIVVNERCVLKVLDFGLARRRNVDMRMSDYVGTRYYRAPEVILGLNYSEKVDIWSVGCILAEMINHTVLFPGKDIRDQWTQISSVLRTPDDHFINQLEPIGAVYVRSLPQHLARAFNEIVPDSNFLPETENPKDHLTLHMARDLLFNMLKINPEERYSVEDALNHPYTMVQGR | not soluble
15 | MSLEVPLLEVLLYTDGSVTRILERFFEEVTIDPLETRKLKVEGREARLLGVPDGDTVYVRRVVIKVDGRPAILATSLARPDNLPGRLRRLVLQSRKPLGKMIEELRLETRREILRVEEARPSPEDEEILDVSVPKIPWREYLVYHRRTPMLLIRERFNPEVLGREGEGHHHHHH | not soluble
16 | MCGRFTLTVDLLALQDRFHFRYQGSLTPRFNIAPGQDVLTIVAEGGERVGKMMRWGLVPFWAKDARIGAKMINARAETVDEKASFRHAFKRRRCLILADGFFEWKKEGTKKVPYRFTLKTGEPFAFAGLWERWEGASDPIETCTIMTTKANELIAPIHDRMPVMLPYERHDDWLDPRLDDSEYLKSLLSPYPSGEMRMYEVAPLVNSPKNDVIACIEPVDSRSMEGT | not soluble
17 | MATIHPPAYLLDQAKRRFTPSFNNFPGMSLVEHMLLNTKFPEKKLAEPPPGSGLKPVVGDAGLPILGHMIEMLRGGPDYLMFLYKTKGPVVFGDSAVLPGVAALGPDAAQVIYSNRNKDYSQQGWVPVIGPFFHRGLMLLDFEEHMFHRRIMQEAFVRSRLAGYLEQMDRVVSRVVADDWVVNDARFLVYPAMKALTLDIASMVFMGHEPGTDHELVTKVNKAFTITTRAGNAVIRTSVPPFTWWRGLRARELLENYFTARVKERREASGNDLLTVLCQTEDDDGNRFSDADIVNHMIFLMMAAHDTSTSTATTMAYQLAAHPEWQQRCRDESDRHGDGPLDIESLEQLESLDLVMNESIRLVTPVQWAMRQTVRDTELLGYYLPKGTNVIAYPGMNHRLPEIWTDPLTFDPERFTEPRNEHKRHRYAFTPFGGGVHKCIGMVFDQLEIKTILHRLLRRYRLELSRPDYQPRWDYSAMPIPMDGMPIVLRPR | not soluble
18 | MKKLSFFLIATLSLGACSTATSPTGRHQVFSGVSQQQLNQLGEQAFVEIKAKEKISGNVRQNAYVRCVVDALVTELPLQWRHVKWETVLFLNEEPNAFALPGGKVGVNTGIFRAAKNQEQLAAVLGHEIGHVVSRHHEERITWQLGTQAGLGLLGVLAGTAYGDSAATAVNQIGGLTAQAAFLLPGSRTQEREADIVGQRLMAQAGFDPIQAVYLWKNMLAIAGQRPPQWLSTHPDPTNRIRQLEQQSAVLASVYAQARDAGRVPHCSPAALEHHHHHH | not soluble
19 | MISTNGITMQFGAKPLFENVSVKFGEGNRYGLIGANGSGKSTFMKILGGDLEQTAGEVAIENGVRLGKLRQDQFAYEDMRVLDVVMMGHTEMWAAMTERDAIYANPEATEDDYMKAAELEAKFAEYDGYTAEARAAELLSGVGISEDLHNAKMAEVAPGFKLRVLLAQALFSKPDVLLLDEPTNNLDINTIRWLEGVLNQYDSTMIIISHDRHFLNEVCTHMADLDYNTITIYPGNYDDYMLASAQSRERALKDNAKAKEKLQELQEFVARFSANKSKARQATSRLKQADKIKSEMVEVKPSTRQNPYIRFEADEKAKLHRQAVEVEKLAKRFETQLFKNLNFILEAGQRLAIIGPNGAGKSTLLKLLAGAYNPEYSDGLLPDEGTIKWAEKASVGYYPQDHENDFDVDMDLSEWMRQWGQEGDDEQVIRGTLGRLLFGSNDVVKKVKVLSGGEKGRMLYGKLLLLKPNVLVMDEPTNHMDMESIESLNMALEKYNGTLIFVSHDRQFVSSLATQIIELDGKGGYEHYLGDYESYLEKKGVA | not soluble
